Reference: patent US20250049935

Columns and labels:
[1] = target: DNase I (UniProt P00639); test: cleavage_in_vitro; conditions: 10 mM Tris-HCl pH 7.5, 2.5 mM MgCl2, 0.5 mM CaCl2, 100 nM DNA, 0.6 unit/mL
[2] = target: thrombin (in C57BL/6 mouse plasma) (Mus musculus) (UniProt P19221+P19221); test: inhibition; conditions: two HD1 aptamers flanking a poly(serinol phosphodiester) backbone of 30 amine-serinol units (X), grafted with 10 kDa PEG side chains; in vivo i.v. 15 nmol in C57BL/6 mice; also 3-fold PT; neutralized by LNA antidote
[3] = target: thrombin (in pooled normal plasma) (Homo sapiens) (UniProt P00734+P00734); test: inhibition; conditions: two HD1 aptamers flanking a poly(serinol phosphodiester) backbone of 30 amine-serinol units (X), grafted with 10 kDa PEG side chains; 5 uM in human plasma; almost three-fold longer clotting; reversed by LNA antidote
[4] = target: alpha thrombin (Homo sapiens) (UniProt P00734+P00734); test: MST; conditions: two HD1 aptamers flanking a poly(serinol phosphodiester) backbone of 30 amine-serinol units (X), grafted with 10 kDa PEG side chains; 20 mM HEPES pH 7.4, 150 mM NaCl, 2 mM CaCl2, 0.05% Tween; 10 nM thrombin

Sequence of DNase I (P00639 23-282): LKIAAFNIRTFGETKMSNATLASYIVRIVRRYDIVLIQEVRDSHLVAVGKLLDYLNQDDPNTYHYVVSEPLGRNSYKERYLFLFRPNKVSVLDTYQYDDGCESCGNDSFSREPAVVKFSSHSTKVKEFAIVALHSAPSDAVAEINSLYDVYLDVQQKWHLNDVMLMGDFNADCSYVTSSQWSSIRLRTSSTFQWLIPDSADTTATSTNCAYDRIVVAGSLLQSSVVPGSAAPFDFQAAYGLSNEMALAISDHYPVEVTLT

NNNNNNNNNNNNNNNTTTTTTTTTTTTTTT / AAAAAAAAAAAAAAA [Doubler PSP pacDNA:dA15 duplex]
activity ([1]; symmetric doubler with two 15-unit poly(serinol phosphodiester) arms grafted with 10 kDa PEG): 38.1 min

TTTTTTTTTTTTTTT (double strand) [dT15:dA15 duplex]
activity [1]: 13.9 min

TTTTTTTTTTTTTTTNNNNNNNNNNNNNNNNNNNNNNNNNNNNNNTTTTTTTTTTTTTTT / AAAAAAAAAAAAAAA [PSP pacDNA:dA15 duplex]
activity ([1]; poly(serinol phosphodiester) backbone of 30 units grafted with 10 kDa PEG): 32.2 min

GGTTGGTGTGGTTGGTTTTTNNNNNNNNNNNNNNNNNNNNNNNNNNNNNNTTTTTGGTTGGTGTGGTTGG [PSP pacHD1]
activity (fold aPTT vs blank) [2]: 5 | activity (fold aPTT vs vehicle) [3]: 3 | Kd [4]: 6.9 nM
